# Results from patent US20250084155A1 (University of Texas, published 2025).
# Numbering of substitutions follows the chain as printed.
# B1: h77A-1.1 (antibody, V domains shown)
# VH: QIQLVQSGAEVKKPGASVKVSCKASGYTFTKYGMNWVRQAPGQGLEWMGWINTYTGEPTYADDFKGRFTFTTDTSTSTAYMELRSLRSDDTAVYFCARYDHAMDYWGQGTLVTVSS
# VL: EIVLTQSPDSLAVSLGERATINCKSSQSLLNSGTRKNYLAWYQQKAGQSPKLLIYWTSTRESGVPDRFSGSGSGTDFTLTIDSLQAEDVAVYYCKQSYTLYTFGGGTKVEIK
# notes: captured by anti-human Fc
# B2: h77A-25 (antibody, V domains shown)
# VH: QIQLVQSGPEVKKPGESVKVSCKASGYTFTNYGMNWVRQAPGKGLEWMGWINTYTGEPTYADDFKGRVTITRDTSASTAYMELSSLRSEDTAVYFCARYDHAMDYWGQGTSVTVSS
# VL: B1 VL with E1D, L4M, A46P, D82S, V109L
# B3: h77A-16 (antibody, V domains shown)
# VH: EVQLVESGGGLVKPGGSLRLSCKASGYTFTNYGMNWVRQAPGKGLKWVGWINTYTGEPTYADDFKGRFTFSRDDSKNTLYLQMNSLKTEDTAVYFCARYDHAMDYWGQGTSVTVSS
# VL: B1 VL
# B4: h77A-15 (antibody, V domains shown)
# VH: QVQLQQSGPEVKKPGASVKISCKTSGYTFTNYGMNWVRQAPGQGLEWMGWINTYTGEPTYADDFKGRVTMTTDTSTSTAYLELTGLMSDDTAVYFCARYDHAMDYWGQGTTVTVSS
# VL: B1 VL with E1D, L4M, A46P, D82S, V109L
# B5: h77A-4 (antibody, V domains shown)
# VH: B1 VH with K31N
# VL: DIQMTQSPSSLSASVGDRVTITCKSSQSLLNSGTRKNYLAWYQQKPGKVPKLLIYWTSTRESGVPSRFSGSGSGTDFTLTISSLQPEDVATYYCKQSYTLYTFGGGTKLEIK
# B6: h77A-23 (antibody, V domains shown)
# VH: B2 VH
# VL: B1 VL with E1D, I2V, L4M, A19V, A46P, D82S, G105Q, V109L
# B7: h77A-12 (antibody, V domains shown)
# VH: B4 VH
# VL: B1 VL with E1D, L4M, A12S, A46P, S49P, K51R, D82N, S83T, G105Q, V109L
# B8: h77A-13 (antibody, V domains shown)
# VH: B4 VH
# VL: B1 VL with E1D, I2V, L4M, A19V, A46P, D82S, G105Q, V109L
# B9: h77A-22 (antibody, V domains shown)
# VH: B2 VH
# VL: B1 VL with E1D, L4M, A12S, A46P, S49P, K51R, D82N, S83T, G105Q, V109L
# B10: h77A-7 (antibody, V domains shown)
# VH: B1 VH with A16S, K31N, T72A, T74E, R84S, D89E
# VL: B1 VL with E1D, L4M, A12S, A46P, S49P, K51R, D82N, S83T, G105Q, V109L
# B11: h77A-9 (antibody, V domains shown)
# VH: B1 VH with A16S, K31N, T72A, T74E, R84S, D89E
# VL: B5 VL
# B12: h77A-1.12 (antibody, V domains shown)
# VH: B1 VH with K31N
# VL: B1 VL with L30F
# notes: captured by anti-human Fc
# B13: h77A-1.18 (antibody, V domains shown)
# VH: B1 VH with K31N, S77R
# VL: B1 VL with L53V
# notes: captured by anti-human Fc
# B14: h77A-21 (antibody, V domains shown)
# VH: B2 VH
# VL: B1 VL
# B15: h77A-1.8 (antibody, V domains shown)
# VH: B1 VH with K31N
# VL: B1 VL with N22K
# notes: captured by anti-human Fc
# B16: h77A-1.10 (antibody, V domains shown)
# VH: B1 VH with A9D, K31N
# VL: B1 VL
# notes: captured by anti-human Fc
# B17: h77A-1.16 (antibody, V domains shown)
# VH: B1 VH
# VL: B1 VL with N22K
# notes: captured by anti-human Fc
# B18: h77A-24 (antibody, V domains shown)
# VH: B2 VH
# VL: B5 VL
# B19: h77A-1.17 (antibody, V domains shown)
# VH: B1 VH with A102S
# VL: B1 VL
# notes: captured by anti-human Fc
# B20: h77A-14 (antibody, V domains shown)
# VH: B4 VH
# VL: B5 VL
# B21: h77A-1.14 (antibody, V domains shown)
# VH: B1 VH with K31N, A61T
# VL: B1 VL
# notes: captured by anti-human Fc
# B22: h77A-1.6 (antibody, V domains shown)
# VH: B1 VH with K31N, S77R
# VL: B1 VL
# notes: captured by anti-human Fc
# B23: chimeric 77A with a human IgG1 Fc domain (antibody, V domains shown)
# VH: QIQLVQSGPELKKPGETVKISCKASGYTFTNYGMNWVKQAPGKGLKWMGWINTYTGEPTYADDFKGRFAFSLETSATTAYLQINNLKNEDTATYFCARYDHAMDYWGQGTSVTVSS
# VL: DIVMSQSPSSLAVSAGEKVTMSCKSSQSLLNSGTRKNYLAWYQQKPGQSPKLLIYWTSTRESGVPDRFTGSGSGTDFTLTINSVQAEDLAVYYCKQSYTLYTFGGGTKLEIK
# notes: also called Chimera IgG1; IgG1 Chimera
# B24: chimeric 77A with a human IgG2 Fc domain (antibody, V domains shown)
# VH: B23 VH
# VL: B23 VL
# notes: also called Chimera IgG2; IgG2 Chimera
# B25: chimeric 77A with a human IgG4 Fc domain (antibody, V domains shown)
# VH: B23 VH
# VL: B23 VL
# notes: also called Chimera IgG4; IgG4 Chimera
# Legend:
# [1] = molecular target: T1, HSP70 (human HSP70; the antigen of the binning, humanization and variant binding assays) (human, UniProt P0DMV8 1-641, limits assumed); test: BLI, anti-human Fc capture, steady state
# T1 construct: also called hu HSP70
# Method: (§1) Further kinetics assays were conducted for select antibody variants. Assays were performed as follows. Antibody variants were immobilized using anti-human Fc onto the surface of a series of biosensors. Antigen was passed over the surface to generate a binding response. Binding data for the antibody: antigen interactions were collected at 25° C. on the biosensors. A dilution series of the antigen was used in the association step, in order to fit results globally and get the best values for ka, kd, and KD. The response data for the binding of antigen to the surface immobilized antibody were fitted to a 1:1 binding model.
# [2] = molecular target: T1, HSP70 (human HSP70; the antigen of the …); test: BLI, anti-human Fc capture, antigen 100 nM
# Method: Binding assays were performed as follows. Antibody variants were immobilized using anti-human Fc onto the surface of a series of biosensors at […]. Antigen, at 100 nM, was passed over the surface to generate a binding response. Binding data for the antibody:antigen interactions were collected at 25° C. on the biosensors. In Table 14, X=610 represents captured antigen value (nM) at the beginning of the dissociation phase (measured at 610 seconds after the biosensor was initially contacted with antigen) and X=1495 represents captured antigen value (nM) at the end of the dissociation phase (measured at 1495 seconds after the biosensor was initially contacted with antigen). In Table 14, antibodies with an X=610 value greater than 0.2 and a % dissociation less than 10% are shown in bold.
# [3] = molecular target: T1, HSP70 (human HSP70; the antigen of the …); test: BLI, anti-human Fc capture, antigen dilution series, 1:1 fit
# Method: as §1
# [4] = molecular target: T1, HSP70 (human HSP70; the antigen of the …); test: BLI, antibody on sensor
# Method: Humanized variants were characterized for binding using biolayer interferometry (BLI). Chimeric antibodies including the murine 77A antigen binding region and human Fe regions were also tested. Antibodies and reagents were diluted out onto microwell plates and loaded into the instrument. Diluted antibodies were first immobilized onto dip-and-read sensors, and then measurements for baselines were acquired. Subsequently, the sensors were dipped into wells containing the antigen in solution, or buffer alone. The change in number of molecules bound to the sensor was quantified by measurement of the shift in the interference pattern of light during each step of the protocol. Mathematical modeling was performed based on those values and the concentrations of reagents used in the assay and used to calculate kinetics values.
# T1 sequence (P0DMV8 whole entry, change not shown): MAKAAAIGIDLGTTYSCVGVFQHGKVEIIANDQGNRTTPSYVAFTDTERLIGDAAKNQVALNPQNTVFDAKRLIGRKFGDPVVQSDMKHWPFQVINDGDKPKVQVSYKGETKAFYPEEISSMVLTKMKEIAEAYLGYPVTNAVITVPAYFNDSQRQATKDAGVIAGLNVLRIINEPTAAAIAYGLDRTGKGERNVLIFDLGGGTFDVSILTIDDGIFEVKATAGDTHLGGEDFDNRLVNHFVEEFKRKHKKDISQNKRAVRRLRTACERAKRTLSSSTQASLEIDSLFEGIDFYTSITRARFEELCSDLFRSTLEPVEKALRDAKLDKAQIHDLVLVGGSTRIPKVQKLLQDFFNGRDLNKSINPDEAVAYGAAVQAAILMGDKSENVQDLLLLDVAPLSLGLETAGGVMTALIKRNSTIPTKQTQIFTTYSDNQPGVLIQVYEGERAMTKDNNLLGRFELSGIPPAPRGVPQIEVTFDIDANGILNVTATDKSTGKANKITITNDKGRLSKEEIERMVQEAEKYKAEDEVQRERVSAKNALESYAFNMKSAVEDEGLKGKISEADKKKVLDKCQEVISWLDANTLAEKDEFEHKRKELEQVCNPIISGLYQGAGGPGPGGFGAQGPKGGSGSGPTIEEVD
Binder,KD Steady State [1],% Diss [2],Kd [3],koff [3],kon [3],Kd [4],koff [4],kon [4]
B1,0.032 nM,3.88%,0.69 nM,6.11e-05 s⁻¹,88500 M⁻¹ s⁻¹,,,
B2,,,,,,10.6 nM,0.000503 s⁻¹,47300 M⁻¹ s⁻¹
B3,,,,,,10.5 nM,0.00046 s⁻¹,44000 M⁻¹ s⁻¹
B4,,,,,,10.8 nM,0.000513 s⁻¹,47600 M⁻¹ s⁻¹
B5,,,,,,7.66 nM,0.000287 s⁻¹,37400 M⁻¹ s⁻¹
B6,,,,,,8.96 nM,0.000447 s⁻¹,49900 M⁻¹ s⁻¹
B7,,,,,,10 nM,0.000446 s⁻¹,44500 M⁻¹ s⁻¹
B8,,,,,,8.85 nM,0.000396 s⁻¹,44700 M⁻¹ s⁻¹
B9,,,,,,8.31 nM,0.000302 s⁻¹,36400 M⁻¹ s⁻¹
B10,,,,,,10 nM,0.000488 s⁻¹,48700 M⁻¹ s⁻¹
B11,,,,,,8.89 nM,0.000348 s⁻¹,39200 M⁻¹ s⁻¹
B12,1.1 nM,4.74%,1.43 nM,7.37e-05 s⁻¹,51700 M⁻¹ s⁻¹,,,
B13,0.81 nM,7.15%,1.44 nM,9.1e-05 s⁻¹,63200 M⁻¹ s⁻¹,,,
B14,,,,,,13.1 nM,0.000545 s⁻¹,41700 M⁻¹ s⁻¹
B15,0.31 nM,8.62%,1.35 nM,7.42e-05 s⁻¹,54800 M⁻¹ s⁻¹,,,
B16,2.6 nM,8.76%,2.48 nM,0.000145 s⁻¹,58400 M⁻¹ s⁻¹,,,
B17,1.3 nM,3.25%,1.27 nM,6.84e-05 s⁻¹,54000 M⁻¹ s⁻¹,,,
B18,,,,,,9.26 nM,0.000294 s⁻¹,31800 M⁻¹ s⁻¹
B19,1.3 nM,7.04%,1.51 nM,9.24e-05 s⁻¹,61400 M⁻¹ s⁻¹,,,
B20,,,,,,15 nM,0.000616 s⁻¹,41100 M⁻¹ s⁻¹
B21,0.77 nM,7.88%,1.97 nM,0.000124 s⁻¹,63100 M⁻¹ s⁻¹,,,
B22,1.8 nM,6.58%,2.11 nM,0.000114 s⁻¹,54200 M⁻¹ s⁻¹,,,
B23,,,,,,1.39 nM,9.94e-05 s⁻¹,71600 M⁻¹ s⁻¹
B24,,,,,,1.52 nM,0.000112 s⁻¹,73700 M⁻¹ s⁻¹
B25,,,,,,1.81 nM,0.000129 s⁻¹,71300 M⁻¹ s⁻¹
